This note sets out measurements from patent publication US20230242675A1 (SHANGHAI EPIMAB BIOTHERAPEUTICS, published 2023).

For experiment [1], the target named is T1, human PD-L1/His fusion protein (human, UniProt Q9NZQ7 19-239). The experiment in a line: BLI Octet RED96, antibody on AHC sensor, PD-L1/His in solution. On the procedure: Binding of antibodies to PD-L1 was also assessed using biolayer interferometry (BLI) using an Octet® RED96 sensor device (Pall ForteBio LLC). Antibodies were captured by anti-hIgG Fc capture (AHC) Biosensors (Pall) at a concentration of 100 nM for 30 seconds. Sensors were then dipped into running buffer (1×pH7.2 PBS, 0.05% Tween 20, 0.1% BSA) for 60 seconds to check the baseline. Binding was measured by dipping sensors into a series of diluted concentrations of recombinant human PD-L1/His fusion protein. Dissociation was followed by dipping sensors into running buffer for 1200 seconds. The association and dissociation curves were fitted to a 1:1 Langmuir binding model using ForteBio Data Analysis software (Pall). The equilibrium dissociation constant KD (molarity) of the reaction between antibodies and related target proteins was then calculated from the kinetic rate constants using the formula KD=koff/kon.
In general terms: BLI is a label-free optical method that tracks binding on a fibre tip over time.

Experiment [2] has as its target T1, human PD-L1/His fusion protein. Description: BLI Octet RED96, antibody on AHC sensor, single conc. PD-L1/His; test group 2. On the procedure: (§1) Briefly, antibodies were characterized for affinities and binding kinetics by Octet®RED96 biolayer interferometry (Pall ForteBio LLC). Antibodies were captured by Anti-hIgG Fc Capture (AHC) Biosensors (Pall) at a concentration of 100 nM for 30 seconds. Sensors were then dipped into running buffer (1×pH 7.2 PBS, 0.05% Tween 20, 0.1% BSA) for 60 seconds to check baseline. Binding was measured by dipping sensors into a single concentration of recombinant human PD-L1/His fusion protein (Novoprotein). Dissociation was followed by dipping sensors into running buffer for 1200 seconds. The association and dissociation curves were fitted to a 1:1 Langmuir binding model using ForteBio Data Analysis software (Pall). […] The off-rate ratio serves as a data normalization. Accordingly, in each test group, the off-rate ratios of the humanized antibodies can be compared with that of the chimeric antibody, and the off-rate ratios of each of the humanized antibodies can be compared to one another within all test groups.

Experiment [3] addresses human PD-L1/Fc Fusion Protein (human). The experiment in a line: RBA ELISA: coated PD-L1/Fc, competitor biotinylated human PD-1. On the procedure:
ELISA plates were coated with 100 μl of 1 μg/ml of human PD-L1/Fc in PBS and incubated overnight at 4° C. Plates were washed four times in washing buffer (PBS containing 0.05% Tween 20) and blocked for 1 hour at 37° C. with 200 μl per well of blocking buffer (1% BSA in PBS containing 0.05% Tween 20). […] A human IgG was included as negative control. The signal was developed by adding streptavidin-HRP (Cat. No. S2468, Sigma) (100 μl/well at 1:5000 dilution) and incubating for 40 minutes at 37° C., followed by washing four times in washing buffer. Then, 100 μl of TMB solution were added per well. Following color development, the reaction was stopped with 1 N HCl, and absorbance at 450 nm was measured. The data were processed by GraphPad software, and IC50 values were calculated. […] The signal reduction induced by antibody samples was normalized to inhibition percentage, where the negative control was 0% inhibition, and the absolute value of signal reduction of each antibody divided by the signal of the negative control equals the percent inhibition by the antibody.
In general terms: In an ELISA, binding on a coated surface is turned into a signal by an enzyme label.

Experiment [4] deals with T1, human PD-L1/His fusion protein. Description: BLI off-rate; test group 1 (reference itself). On the procedure: as §1
Experiment [5] deals with T2, cynomolgus (cyno) PD-L1/His fusion protein (cynomolgus, UniProt G7PSE7 19-239).
T2 construct: also called cynomolgus PD-L1; not shown: His tag
Description: BLI Octet RED96, cyno PD-L1.

For experiment [6], the target named is T1, human PD-L1/His fusion protein. Description: BLI Octet RED96, antibody on AHC sensor, single conc. PD-L1/His; test group 1. On the procedure: as §1
In experiment [7] the target is T3, human PD-L1 on the cell surface (CHO-K1 cells stably expressing human PD-L1) (human, UniProt Q9NZQ7 19-290).
T3 construct: whole, on cells; Also used here for PD-L1 on the monocyte-derived dendritic cells of the MLR assay (functional rows); also called CHO-K1/PD-L1; CHOK1-PD-L1
Description: FACS on CHO-K1/hPD-L1 cells. On the procedure: The ability of the purified antibodies to bind to cell membrane human PD-L1 was determined by FACS analysis. CHO-K1 cells stably expressing human PD-L1 (CHO-K1/hPD-L1 cells) were resuspended in PBS containing 2% FBS (FACS buffer) and seeded at 1×10⁵ cells/well into 96-well round-bottomed plates (Corning; Cat. No. 3799). […] The assay plate was then read on a flow cytometer. The data were processed by GraphPad software, and EC50 values were calculated. The EC50 for binding activity according to this FACS analysis is the concentration at which of an antibody induces a response halfway between the baseline and maximum and reflects the binding ability of the antibody.

The target of experiment [8] is T1, human PD-L1/His fusion protein. The experiment in a line: BLI Octet RED96, antibody on AHC sensor, single conc. PD-L1/His; test group 3. On the procedure: as §1
For experiment [9] the target is unchanged. The experiment in a line: BLI off-rate; test group 3 (reference itself). On the procedure: as §1
Experiment [10] shares this target. Description: BLI off-rate; test group 4 (reference itself). On the procedure: as §1
Experiment [11] has the same target. The experiment in a line: ELISA, coated human PD-L1 protein, anti-human Fc detection. On the procedure: (§2) The ability of an antibody to bind human or cynomolgus (cyno) PD-L1 (binding activity) was determined by ELISA. ELISA plates were incubated overnight at 4° C. with 50 μl of the human or cyno PD-L1 protein described above diluted in PBS buffer, pH 7.4, at 1 μg/ml. Plates were washed four times in washing buffer (PBS containing 0.05% Tween 20) and blocked for 1 hour at 37° C. with 200 μl per well of blocking buffer (1% BSA in PBS containing 0.05% Tween 20). After blocking buffer was removed, diluted purified antibodies (200 nM and 1:5 serial dilutions to provide 7 concentrations of each antibody) were added to the wells at 100 μl per well and incubated at 37° C. for 1 hour. The wells were washed four times with washing buffer, and anti-human IgG (Fc-specific) HRP-conjugated antibody (Sigma), diluted 1:10,000, was added to the wells at 100 μl per well. The plates were incubated for 1 hour at 37° C. and washed four times in washing buffer. 100 μl of tetramethylbenzidine (TMB) chromogenic solution were added per well. Following color development, the reaction was stopped with 1 N HCl, and absorbance at 450 nm was measured on a VARIOSKAN™ LUX multimode microplate reader (ThermoFisher Scientific, Vataa, Finland). The data were processed by GraphPad software, and EC50 values were calculated. The EC50 for binding activity according to this ELSA is the concentration at which an antibody induces a response halfway between the baseline and maximum and indicates the binding ability of the antibody.

Experiment [12] shares this target. The experiment in a line: BLI off-rate; test group 2 (reference itself). On the procedure:
as §1

Experiment [13] concerns the target T2, cynomolgus (cyno) PD-L1/His fusion …. Description: ELISA, coated cyno PD-L1 protein. On the procedure: as §2
The target in experiment [14] is T1, human PD-L1/His fusion protein. Description: BLI Octet RED96, antibody on AHC sensor, single conc. PD-L1/His; test group 4. On the procedure: as §1

As usually defined, the Kd is the equilibrium constant for the complex coming apart. Read a low Kd as tighter binding. One may read the koff as a measure of how fast the partners let go of each other. A high value points to a short-lived complex. As usually defined, the IC50 is the concentration needed to halve the response being measured. Low values mean greater potency in that assay, high ones weaker potency in that assay. What is called EC50 is the concentration that produces a half-maximal response. The low end stands for greater potency, the high end for weaker potency.

Sequence of human PD-L1/Fc Fusion Protein (human) (chain, as listed by the source limits assumed): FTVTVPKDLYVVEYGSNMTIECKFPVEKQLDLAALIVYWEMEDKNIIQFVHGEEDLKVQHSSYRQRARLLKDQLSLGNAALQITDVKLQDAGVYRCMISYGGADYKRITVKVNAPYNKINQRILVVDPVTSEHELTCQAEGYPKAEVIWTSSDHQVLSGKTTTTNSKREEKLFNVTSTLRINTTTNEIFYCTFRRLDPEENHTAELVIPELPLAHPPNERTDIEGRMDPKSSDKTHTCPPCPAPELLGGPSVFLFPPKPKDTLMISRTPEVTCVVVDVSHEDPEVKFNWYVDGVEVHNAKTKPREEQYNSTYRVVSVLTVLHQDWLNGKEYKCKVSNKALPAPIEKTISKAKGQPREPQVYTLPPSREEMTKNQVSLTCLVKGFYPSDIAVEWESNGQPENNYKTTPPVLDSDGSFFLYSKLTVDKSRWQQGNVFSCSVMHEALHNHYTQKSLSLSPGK
T2 sequence (G7PSE7 entry or part of it): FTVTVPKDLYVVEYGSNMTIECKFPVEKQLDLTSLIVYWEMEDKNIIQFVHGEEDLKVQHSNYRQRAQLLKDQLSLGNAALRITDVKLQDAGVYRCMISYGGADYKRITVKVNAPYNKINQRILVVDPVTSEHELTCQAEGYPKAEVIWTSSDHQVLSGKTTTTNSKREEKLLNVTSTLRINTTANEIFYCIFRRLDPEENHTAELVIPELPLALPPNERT
T1 sequence (Q9NZQ7 19-239 limits assumed): as the sequence (G7PSE7 entry or part of it) above, with T33A, S34A, N62S, Q68R, R82Q, L173F, A185T, I192T, L215H counted along it
T3 sequence (Q9NZQ7 19-290): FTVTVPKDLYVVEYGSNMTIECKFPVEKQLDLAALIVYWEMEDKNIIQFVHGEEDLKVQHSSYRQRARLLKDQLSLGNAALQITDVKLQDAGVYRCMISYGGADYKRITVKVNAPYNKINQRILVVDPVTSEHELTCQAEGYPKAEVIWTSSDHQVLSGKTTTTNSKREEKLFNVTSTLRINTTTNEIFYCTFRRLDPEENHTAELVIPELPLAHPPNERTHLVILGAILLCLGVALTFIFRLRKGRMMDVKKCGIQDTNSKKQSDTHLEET

B1: EM0005-mAb90c (antibody, human IgG1, kappa, V domains shown)
VH: QVQLKQSGAELVRPGSSVKMSCKTSGYTFTSHSINWVKQRPGQGLEWIGYMYIGNGYTEYNEKFKGKATLTSDTSSTTAYMQLSSLTSEDSAIYFCAKITPVVAPYVMDYWGQGTSVTVSS
VL: DIVMTQTHKFMSTSVGDRVSITCKASQDVGTAVAWYQQKPGQSPKLLIYWASTRHTGVPDRFTGSGSGTDFTLTISNVQSEDLADYFCQQYSSYPYTFGGGTKLELKR
notes: Chimeric full-length IgG1; also called EM0005-90c
Regarding B1, the Kd in experiment [1] stood at 0.681 nM; in experiment [5], 0.837 nM. Further, the koff in experiment [2] stood at 0.000342 s⁻¹; in experiment [6] it was 0.000253 s⁻¹; in [8], 0.000382 s⁻¹; in experiment [14] it was 0.00225 s⁻¹. The IC50 in experiment [3] amounted to 1.05 nM. Moreover, in experiment [3], the “Inhibition (percent)” value was 94.4%. Further, the “Off-Rate Ratio to that of EM0005-90c” value in [4], in experiment [9], in experiment [10] and in experiment [12] was 100% in each case. Also, the EC50 in experiment [7] stood at 0.21 nM; in [11], 0.15 nM; in experiment [13], 0.12 nM.

B2: EM0005-mAb87c (antibody, human IgG1, kappa, V domains shown)
VH: EVQLQQSGPELVKPGASVKISCKASGYSFTDYYINWVKQSPEKSLEWIGETIPNTGGTTYNQKFKAKATLTVDKSSSTAYMQLKSLTSEDSAVYYCARYQSGSPFAYWGQGTPVTVSS
VL: DIVMTQSQKFMSTTVGDRVSITCKASQNVGTAVAWYQQKPGQSPKLLIYSASNRYTGVPDRFTGSGSGTDFTLTISNMQSEDLADYFCQQHYSTPYTFGGGTKLEIKR
notes: Chimeric full-length IgG1; also called EM0005-87c
In the case of B2, the Kd in experiment [1] was found to be 0.981 nM; in [5], 0.493 nM. The off-rate constant (koff) in experiment [2] was 0.00104 s⁻¹; in experiment [6], 0.00147 s⁻¹; in experiment [8], 0.00135 s⁻¹; in [14] it was 0.000897 s⁻¹. The molecule also displayed an IC50 in experiment [3] of 0.94 nM. Further, the “Inhibition (percent)” value in experiment [3] was determined as 93.9%. Further, the “Off-Rate Ratio to that of EM0005-87c” value in experiment [4], in experiment [9], in experiment [10] and in [12] was 100% throughout. Besides, the EC50 in [7] is 0.42 nM; in [11], 0.08 nM; in experiment [13], 0.06 nM.
